{"source": "paper PMC6602975", "key": {"[1]": {"biological_target": "H4K16ac nucleosome (X. laevis | not stated)", "assay": "native gel or EMSA; increasing amounts of Orc1 or Sir3 proteins with 50 or 25 nM nucleosomes; 10 mM Tris pH 7.5, 50 mM NaCl, 2.5% glycerol, 1 mM DTT; room temperature, 30 min; native PAGE 6% (Sir3) or 8% (Orc1), 0.2X TBE; decrease of free nucleosome; apparent KD from a Hill fit"}, "[2]": {"biological_target": "Unmodified nucleosome core particle (X. laevis histone octamer on 147 bp Widom-601 DNA) (X. laevis)", "assay": "native gel or EMSA; increasing amounts of Orc1 or Sir3 proteins with 50 or 25 nM nucleosomes; 10 mM Tris pH 7.5, 50 mM NaCl, 2.5% glycerol, 1 mM DTT; room temperature, 30 min; native PAGE 6% (Sir3) or 8% (Orc1), 0.2X TBE; decrease of free nucleosome; apparent KD from a Hill fit"}}}
{"substance": "Wild-type Orc1 (1–214) BAH domain (from UniProt P54784 1-214) (domain or fragment)", "values": [{"measurement": "Kd", "setting": "[1]", "value": 1500, "unit": "nM"}, {"measurement": "Kd", "setting": "[2]", "value": 1300, "unit": "nM"}]}
